Reference: patent publication US7183387 (Genentech, dated 2007)

T1: human FcγRIIB α subunit extracellular domain-6His-GST fusion (human, UniProt P31994 43-217)
T1 construct: not shown: glutathione S-transferase (GST)
T1 sequence: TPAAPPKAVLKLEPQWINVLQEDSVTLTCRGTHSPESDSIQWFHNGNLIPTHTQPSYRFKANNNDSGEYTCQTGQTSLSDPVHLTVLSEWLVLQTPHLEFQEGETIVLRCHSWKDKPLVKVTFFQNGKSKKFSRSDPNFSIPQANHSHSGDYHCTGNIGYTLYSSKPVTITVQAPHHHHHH

T2: human FcγRIIA-R131 α subunit extracellular domain-6His-GST fusion (human, UniProt P12318 34-217)
T2 construct: also called FcγRIIA-Arg131; not shown: glutathione S-transferase (GST)
T2 sequence: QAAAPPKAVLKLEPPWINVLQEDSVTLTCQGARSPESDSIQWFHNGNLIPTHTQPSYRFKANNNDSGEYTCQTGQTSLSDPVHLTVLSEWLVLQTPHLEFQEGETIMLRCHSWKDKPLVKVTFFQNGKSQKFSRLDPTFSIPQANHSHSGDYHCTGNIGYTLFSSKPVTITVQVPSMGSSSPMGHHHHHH


Columns and labels:
Assay in all cases: ELISA, IgG:IgE hexamers on receptor-GST
[1] = target: T1, human FcγRIIB α subunit extracellular …
[2] = target: T3, human FcγRIIIA-F158 α subunit extracellular domain-6His-GST fusion (human, UniProt P08637 17-208)
T3 construct: also called FcγRIIIA-Phe158; not shown: glutathione S-transferase (GST)

[3] = target: T2, human FcγRIIA-R131 α subunit …

T3 sequence (P08637 other isoform, or with tags, fused parts or gaps, form in doubt): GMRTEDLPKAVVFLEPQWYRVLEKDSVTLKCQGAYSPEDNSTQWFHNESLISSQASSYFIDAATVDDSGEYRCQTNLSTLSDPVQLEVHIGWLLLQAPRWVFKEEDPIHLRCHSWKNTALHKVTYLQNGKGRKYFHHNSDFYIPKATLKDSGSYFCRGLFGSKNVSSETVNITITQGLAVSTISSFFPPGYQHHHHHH

ratio to native IgG1 [1] | ratio to native IgG1 [2] | ratio to native IgG1 [3] | Binder
0.75 | 1.15 | 0.71 | E27 IgG1 variant R292(309)K (antibody, also called IG2 80) heavy: not shown light: DIQLTQSPSSLSASVGDRVTITCRASKPVDGEGDSYLNWYQQKPGKAPKLLIYAASYLESGVPSRFSGSGSGTDFTLTISSLQPEDFATYYCQQSHEDPYTFGQGTKVEIKRTVAAPSVFIFPPSDEQLKSGTASVVCLLNNFYPREAKVQWKVDNALQSGNSQESVTEQDSKDSTYSLSSTLTLSKADYEKHKVYACEVTHQGLSSPVTKSFNRGEC
0.27 | 0.73 | 0.29 | E27 IgG1 variant S298(317)T (antibody, also called IG2 71) heavy: not shown light: DIQLTQSPSSLSASVGDRVTITCRASKPVDGEGDSYLNWYQQKPGKAPKLLIYAASYLESGVPSRFSGSGSGTDFTLTISSLQPEDFATYYCQQSHEDPYTFGQGTKVEIKRTVAAPSVFIFPPSDEQLKSGTASVVCLLNNFYPREAKVQWKVDNALQSGNSQESVTEQDSKDSTYSLSSTLTLSKADYEKHKVYACEVTHQGLSSPVTKSFNRGEC
1.56 | 0.48 | 1.29 | E27 IgG1 variant R301(320)M (antibody) heavy: not shown light: DIQLTQSPSSLSASVGDRVTITCRASKPVDGEGDSYLNWYQQKPGKAPKLLIYAASYLESGVPSRFSGSGSGTDFTLTISSLQPEDFATYYCQQSHEDPYTFGQGTKVEIKRTVAAPSVFIFPPSDEQLKSGTASVVCLLNNFYPREAKVQWKVDNALQSGNSQESVTEQDSKDSTYSLSSTLTLSKADYEKHKVYACEVTHQGLSSPVTKSFNRGEC
0.29 | 0.88 | 0.54 | E27 IgG1 variant R292(309)N (antibody, also called IG2 83) heavy: not shown light: DIQLTQSPSSLSASVGDRVTITCRASKPVDGEGDSYLNWYQQKPGKAPKLLIYAASYLESGVPSRFSGSGSGTDFTLTISSLQPEDFATYYCQQSHEDPYTFGQGTKVEIKRTVAAPSVFIFPPSDEQLKSGTASVVCLLNNFYPREAKVQWKVDNALQSGNSQESVTEQDSKDSTYSLSSTLTLSKADYEKHKVYACEVTHQGLSSPVTKSFNRGEC
1.42 | 0.34 | 1.14 | E27 IgG1 variant S298(317)L (antibody) heavy: not shown light: DIQLTQSPSSLSASVGDRVTITCRASKPVDGEGDSYLNWYQQKPGKAPKLLIYAASYLESGVPSRFSGSGSGTDFTLTISSLQPEDFATYYCQQSHEDPYTFGQGTKVEIKRTVAAPSVFIFPPSDEQLKSGTASVVCLLNNFYPREAKVQWKVDNALQSGNSQESVTEQDSKDSTYSLSSTLTLSKADYEKHKVYACEVTHQGLSSPVTKSFNRGEC
0.08 | 0.06 | 0.05 | E27 IgG1 variant S298(317)N (antibody, also called IG2 72) heavy: not shown light: DIQLTQSPSSLSASVGDRVTITCRASKPVDGEGDSYLNWYQQKPGKAPKLLIYAASYLESGVPSRFSGSGSGTDFTLTISSLQPEDFATYYCQQSHEDPYTFGQGTKVEIKRTVAAPSVFIFPPSDEQLKSGTASVVCLLNNFYPREAKVQWKVDNALQSGNSQESVTEQDSKDSTYSLSSTLTLSKADYEKHKVYACEVTHQGLSSPVTKSFNRGEC
0.63 | 0.46 | 0.87 | E27 IgG1 variant S298(317)G (antibody, also called IG2 70) heavy: not shown light: DIQLTQSPSSLSASVGDRVTITCRASKPVDGEGDSYLNWYQQKPGKAPKLLIYAASYLESGVPSRFSGSGSGTDFTLTISSLQPEDFATYYCQQSHEDPYTFGQGTKVEIKRTVAAPSVFIFPPSDEQLKSGTASVVCLLNNFYPREAKVQWKVDNALQSGNSQESVTEQDSKDSTYSLSSTLTLSKADYEKHKVYACEVTHQGLSSPVTKSFNRGEC
0.25 | 0.45 | 0.47 | E27 IgG1 variant R292(309)Q (antibody, also called IG2 82) heavy: not shown light: DIQLTQSPSSLSASVGDRVTITCRASKPVDGEGDSYLNWYQQKPGKAPKLLIYAASYLESGVPSRFSGSGSGTDFTLTISSLQPEDFATYYCQQSHEDPYTFGQGTKVEIKRTVAAPSVFIFPPSDEQLKSGTASVVCLLNNFYPREAKVQWKVDNALQSGNSQESVTEQDSKDSTYSLSSTLTLSKADYEKHKVYACEVTHQGLSSPVTKSFNRGEC
